Columns and labels:
[1] = target: c-Src SH2; assay: SH2 binding enrichment of the phosphorylated peptide, bacterial display (enrichment ratio); higher = better substrate or ligand; peptides without Tyr show the background
[2] = target: Grb2 SH2 (UniProt P62993); assay: as above
[3] = target: SHP2-C SH2; assay: as above
[4] = system: c-Abl (mouse); assay: phosphorylation enrichment, bacterial display (enrichment ratio); higher = better substrate or ligand; peptides without Tyr show the background
[5] = target: Jak2 (UniProt O60674); assay: as above
[6] = target: FGFR3 (UniProt P22607); assay: as above
[7] = target: EPHB2 (UniProt P29323); assay: as above
[8] = system: c-Src; assay: as above
[9] = target: EPHB1 (UniProt P54762); assay: as above
[10] = target: Fyn (UniProt P06241); assay: as above
[11] = target: FGFR1 (UniProt P11362); assay: as above
[12] = target: Hck (UniProt P08631); assay: as above
[13] = system: AncSZ; assay: as above
[14] = target: MERTK (UniProt Q12866); assay: as above
[15] = target: Fes (UniProt P07332); assay: as above
[16] = system: Fer (mouse); assay: as above
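Wherever SH2 binding enrichment of the phosphorylated peptide, bacterial display is given: peptide library displayed on the E. coli surface as eCPX fusions, selected cells deep-sequenced, score is each peptide's frequency after selection divided by its frequency in the input.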
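Wherever phosphorylation enrichment, bacterial display is given: 11-residue human phosphosite peptides and single-mutation variants displayed on the E. coli surface, counted by deep sequencing, each peptide's frequency after selection divided by its frequency in the unselected input library; frequency after pTyr selection over input frequency; kinase dosed for 20-30% of maximal phosphorylation in three min.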

Chain of EPHB2 (P29323 whole entry, looked up): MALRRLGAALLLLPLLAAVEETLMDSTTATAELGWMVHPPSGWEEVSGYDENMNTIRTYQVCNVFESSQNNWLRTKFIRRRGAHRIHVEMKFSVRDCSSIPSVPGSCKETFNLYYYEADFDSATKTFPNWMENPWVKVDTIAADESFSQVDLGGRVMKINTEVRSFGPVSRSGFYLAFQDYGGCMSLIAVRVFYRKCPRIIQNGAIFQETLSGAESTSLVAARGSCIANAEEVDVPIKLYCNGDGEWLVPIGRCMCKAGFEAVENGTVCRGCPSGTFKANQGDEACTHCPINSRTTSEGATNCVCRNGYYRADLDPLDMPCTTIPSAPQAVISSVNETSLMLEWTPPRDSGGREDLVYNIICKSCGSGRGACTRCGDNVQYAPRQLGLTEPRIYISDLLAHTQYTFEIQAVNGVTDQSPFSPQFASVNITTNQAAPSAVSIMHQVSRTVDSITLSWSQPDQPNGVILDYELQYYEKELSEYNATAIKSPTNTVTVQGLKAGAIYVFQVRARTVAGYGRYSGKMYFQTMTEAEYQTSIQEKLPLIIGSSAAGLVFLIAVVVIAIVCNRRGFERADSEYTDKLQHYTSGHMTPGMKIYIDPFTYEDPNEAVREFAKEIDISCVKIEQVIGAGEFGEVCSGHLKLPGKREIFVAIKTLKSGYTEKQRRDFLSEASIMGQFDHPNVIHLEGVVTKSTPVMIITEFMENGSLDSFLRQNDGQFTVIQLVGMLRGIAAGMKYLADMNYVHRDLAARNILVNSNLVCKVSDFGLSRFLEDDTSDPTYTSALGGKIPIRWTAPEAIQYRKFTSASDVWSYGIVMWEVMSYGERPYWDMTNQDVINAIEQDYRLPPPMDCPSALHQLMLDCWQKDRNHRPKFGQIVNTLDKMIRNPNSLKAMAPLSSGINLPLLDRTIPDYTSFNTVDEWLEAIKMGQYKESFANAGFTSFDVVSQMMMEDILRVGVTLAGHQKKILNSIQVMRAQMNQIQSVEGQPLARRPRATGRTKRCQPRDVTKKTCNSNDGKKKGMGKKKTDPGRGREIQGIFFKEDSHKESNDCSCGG
Chain of Grb2 SH2 (P62993 whole entry, looked up): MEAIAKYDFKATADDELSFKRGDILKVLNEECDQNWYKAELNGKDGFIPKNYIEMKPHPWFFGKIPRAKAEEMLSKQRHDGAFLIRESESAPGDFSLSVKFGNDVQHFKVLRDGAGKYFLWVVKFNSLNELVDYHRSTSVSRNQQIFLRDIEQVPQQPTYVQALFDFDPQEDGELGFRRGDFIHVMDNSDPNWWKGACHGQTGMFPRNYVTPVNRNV
Chain of Jak2 (O60674 whole entry, looked up): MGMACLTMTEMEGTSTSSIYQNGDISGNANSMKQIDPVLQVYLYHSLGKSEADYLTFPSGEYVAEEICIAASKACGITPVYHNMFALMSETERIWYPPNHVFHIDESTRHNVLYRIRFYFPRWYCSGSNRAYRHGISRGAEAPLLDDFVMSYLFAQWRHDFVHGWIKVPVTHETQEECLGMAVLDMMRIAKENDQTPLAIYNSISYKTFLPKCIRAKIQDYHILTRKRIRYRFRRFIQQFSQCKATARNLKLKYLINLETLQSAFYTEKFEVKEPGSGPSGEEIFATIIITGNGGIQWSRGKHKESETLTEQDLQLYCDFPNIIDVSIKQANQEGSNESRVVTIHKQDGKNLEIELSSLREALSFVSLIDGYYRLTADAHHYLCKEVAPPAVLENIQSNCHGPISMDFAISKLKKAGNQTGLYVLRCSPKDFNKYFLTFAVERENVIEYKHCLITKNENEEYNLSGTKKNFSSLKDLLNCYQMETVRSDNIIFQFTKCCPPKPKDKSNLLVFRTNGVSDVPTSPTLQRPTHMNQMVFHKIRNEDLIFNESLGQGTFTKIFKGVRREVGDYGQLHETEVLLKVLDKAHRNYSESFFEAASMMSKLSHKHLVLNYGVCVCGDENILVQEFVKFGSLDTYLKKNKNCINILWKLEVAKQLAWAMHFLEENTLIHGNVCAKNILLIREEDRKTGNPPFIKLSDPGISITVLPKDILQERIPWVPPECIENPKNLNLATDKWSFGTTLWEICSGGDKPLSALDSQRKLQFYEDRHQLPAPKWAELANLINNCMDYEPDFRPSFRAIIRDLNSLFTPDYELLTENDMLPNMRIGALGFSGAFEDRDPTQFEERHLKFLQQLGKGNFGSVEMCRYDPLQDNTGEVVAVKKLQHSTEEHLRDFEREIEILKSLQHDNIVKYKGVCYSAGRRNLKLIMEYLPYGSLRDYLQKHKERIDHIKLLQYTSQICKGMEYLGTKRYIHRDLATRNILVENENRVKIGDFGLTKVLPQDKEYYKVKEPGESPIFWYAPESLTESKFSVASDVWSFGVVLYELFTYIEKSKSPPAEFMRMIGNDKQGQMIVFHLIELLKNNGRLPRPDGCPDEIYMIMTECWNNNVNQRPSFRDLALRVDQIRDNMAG
Chain of FGFR3 (P22607 whole entry, looked up): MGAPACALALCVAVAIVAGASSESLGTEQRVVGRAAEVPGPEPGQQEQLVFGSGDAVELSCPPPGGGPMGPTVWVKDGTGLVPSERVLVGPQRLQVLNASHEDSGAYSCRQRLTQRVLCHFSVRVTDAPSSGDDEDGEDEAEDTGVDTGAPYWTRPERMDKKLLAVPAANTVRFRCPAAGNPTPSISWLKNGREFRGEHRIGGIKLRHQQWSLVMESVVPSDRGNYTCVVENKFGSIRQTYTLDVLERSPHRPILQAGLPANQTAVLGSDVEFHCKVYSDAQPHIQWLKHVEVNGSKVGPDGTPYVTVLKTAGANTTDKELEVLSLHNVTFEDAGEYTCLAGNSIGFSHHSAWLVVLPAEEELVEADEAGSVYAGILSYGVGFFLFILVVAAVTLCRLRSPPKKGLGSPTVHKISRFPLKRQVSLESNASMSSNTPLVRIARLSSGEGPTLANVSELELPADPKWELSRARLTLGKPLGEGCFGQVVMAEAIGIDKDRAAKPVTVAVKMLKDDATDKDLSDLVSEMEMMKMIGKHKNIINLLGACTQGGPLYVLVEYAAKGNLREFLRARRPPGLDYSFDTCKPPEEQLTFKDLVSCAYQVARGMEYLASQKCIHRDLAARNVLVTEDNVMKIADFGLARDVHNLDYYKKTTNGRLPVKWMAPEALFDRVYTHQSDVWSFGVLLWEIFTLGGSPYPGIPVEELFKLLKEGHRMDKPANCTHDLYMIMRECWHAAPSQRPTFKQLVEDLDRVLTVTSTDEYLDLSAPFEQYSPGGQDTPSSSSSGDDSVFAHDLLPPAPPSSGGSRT
Chain of EPHB1 (P54762 whole entry, looked up): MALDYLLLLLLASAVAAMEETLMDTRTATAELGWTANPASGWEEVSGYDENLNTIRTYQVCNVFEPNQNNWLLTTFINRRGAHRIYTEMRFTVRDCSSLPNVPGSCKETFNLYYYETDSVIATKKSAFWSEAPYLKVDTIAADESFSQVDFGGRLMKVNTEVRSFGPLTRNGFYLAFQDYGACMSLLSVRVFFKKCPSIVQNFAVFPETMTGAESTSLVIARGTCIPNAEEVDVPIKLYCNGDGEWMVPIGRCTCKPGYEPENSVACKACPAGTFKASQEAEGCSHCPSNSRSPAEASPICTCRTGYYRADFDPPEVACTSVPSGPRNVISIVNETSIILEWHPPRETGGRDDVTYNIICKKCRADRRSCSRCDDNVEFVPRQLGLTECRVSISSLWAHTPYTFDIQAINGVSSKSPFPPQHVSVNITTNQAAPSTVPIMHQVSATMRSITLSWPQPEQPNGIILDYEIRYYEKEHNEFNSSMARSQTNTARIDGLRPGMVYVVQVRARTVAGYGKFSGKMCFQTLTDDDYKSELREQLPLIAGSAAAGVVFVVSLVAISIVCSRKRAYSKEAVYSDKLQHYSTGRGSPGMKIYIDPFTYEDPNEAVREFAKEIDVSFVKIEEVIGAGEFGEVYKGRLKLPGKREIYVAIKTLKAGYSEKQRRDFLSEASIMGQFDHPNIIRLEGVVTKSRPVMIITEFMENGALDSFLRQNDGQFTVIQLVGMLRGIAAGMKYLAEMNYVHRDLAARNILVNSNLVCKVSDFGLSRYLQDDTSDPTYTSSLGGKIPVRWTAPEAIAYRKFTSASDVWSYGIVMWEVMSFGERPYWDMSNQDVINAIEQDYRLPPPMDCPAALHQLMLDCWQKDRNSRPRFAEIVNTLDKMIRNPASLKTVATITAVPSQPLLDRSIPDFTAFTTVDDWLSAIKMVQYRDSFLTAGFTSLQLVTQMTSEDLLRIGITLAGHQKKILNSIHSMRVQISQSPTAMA
Chain of FGFR1 (P11362 whole entry, looked up): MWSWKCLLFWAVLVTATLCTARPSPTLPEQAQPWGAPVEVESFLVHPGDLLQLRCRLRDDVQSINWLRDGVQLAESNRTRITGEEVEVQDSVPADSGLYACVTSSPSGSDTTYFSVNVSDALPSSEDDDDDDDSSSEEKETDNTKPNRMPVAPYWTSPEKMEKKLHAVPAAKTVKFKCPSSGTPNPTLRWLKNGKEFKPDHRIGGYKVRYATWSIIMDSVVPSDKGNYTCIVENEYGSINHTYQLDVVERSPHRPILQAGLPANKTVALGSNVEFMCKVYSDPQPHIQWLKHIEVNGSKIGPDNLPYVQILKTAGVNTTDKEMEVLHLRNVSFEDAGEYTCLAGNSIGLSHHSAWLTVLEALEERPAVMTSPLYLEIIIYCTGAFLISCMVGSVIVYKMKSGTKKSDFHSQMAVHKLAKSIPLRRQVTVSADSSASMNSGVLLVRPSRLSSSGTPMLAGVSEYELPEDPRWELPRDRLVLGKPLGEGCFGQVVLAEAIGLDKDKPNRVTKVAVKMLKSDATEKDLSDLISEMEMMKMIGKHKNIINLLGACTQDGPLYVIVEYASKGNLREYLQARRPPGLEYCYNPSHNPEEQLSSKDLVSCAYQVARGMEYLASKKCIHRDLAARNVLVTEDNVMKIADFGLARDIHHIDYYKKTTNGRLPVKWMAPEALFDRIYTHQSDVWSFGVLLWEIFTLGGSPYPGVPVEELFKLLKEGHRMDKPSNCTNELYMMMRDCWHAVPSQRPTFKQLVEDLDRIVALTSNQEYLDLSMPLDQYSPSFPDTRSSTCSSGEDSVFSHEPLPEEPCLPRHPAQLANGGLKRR

| Sequence | SH2 binding enrichment [1] | SH2 binding enrichment [2] | SH2 binding enrichment [3] | phosphorylation enrichment [4] | phosphorylation enrichment [5] | phosphorylation enrichment [6] | phosphorylation enrichment [7] | phosphorylation enrichment [8] | phosphorylation enrichment [9] | phosphorylation enrichment [10] | phosphorylation enrichment [11] | phosphorylation enrichment [12] | phosphorylation enrichment [13] | phosphorylation enrichment [14] | phosphorylation enrichment [15] | phosphorylation enrichment [16] |
| --- | --- | --- | --- | --- | --- | --- | --- | --- | --- | --- | --- | --- | --- | --- | --- | --- |
| PYRQWYESHYA [RPS8_Y113] | 1.59 | 1.33 | 1.09 | 1.19 | 1.37 | 1.1 | 2.27 | 2.35 | 2.82 | 1.09 | 1.36 | 1.3 | 1.61 | 1.86 | 1.69 | 10.9 |
| PYYTSYPPSPD [GDAP2_Y491] | 1.28 | 0.728 | 1.01 | 1.67 | 3.58 | 3.57 | 5.06 | 6.44 | 3.43 | 5.09 | 4.8 | 2.39 | 1.38 | 9.55 | 1.03 | 0.676 |
| QADVIYVNTQL [MERTK_Y872] | 0.608 | 1.26 | 0.699 | 1 | 1.18 | 1.4 | 0.962 | 1.27 | 2.52 | 2.13 | 2.29 | 2.19 | 1.61 | 0.925 | 1.43 | 8.63 |
| QAEELYFGKMG [YES1_Y159_W158L] | 0.483 | 0.795 | 0.455 | 2.25 | 1.14 | 1.55 | 0.837 | 3.55 | 0.861 | 3.61 | 1.49 | 5.82 | 2.15 | 1.87 | 1.55 | 0.747 |
| QAKRKYQEASK [FES_Y156] | 0.602 | 1.16 | 0.701 | 0.491 | 0.429 | 0.441 | 0.459 | 0.488 | 0.342 | 0.544 | 0.495 | 0.489 | 0.46 | 0.418 | 0.772 | 0.481 |
| QAPPVYLDVLG [NTRK1_Y791] | 0.723 | 1.03 | 0.765 | 0.954 | 1.16 | 1.49 | 1.34 | 0.727 | 4.2 | 1.01 | 2.33 | 1.02 | 1.17 | 0.901 | 1.45 | 0.69 |
| QDEHGYISLCF [HSPB1_Y133_R136L] | 0.485 | 0.637 | 0.579 | 2.42 | 3.37 | 2.09 | 1.22 | 1.16 | 1.56 | 1.05 | 1.48 | 1.17 | 2.22 | 1.36 | 3.71 | 1.08 |
| QDTSRYTVCNL [BIRC3_Y245_S248C] | 1.29 | 0.79 | 0.78 | 0.854 | 0.741 | 0.469 | 0.439 | 0.439 | 0.528 | 0.546 | 0.418 | 0.359 | 0.745 | 0.348 | 0.815 | 0.557 |
| QEGPEYWDRET [HLA-A_Y83_Q86R] | 0.533 | 0.787 | 0.539 | 1.44 | 2.21 | 1.08 | 0.946 | 0.814 | 1.16 | 0.692 | 0.85 | 0.871 | 2.03 | 0.924 | 2.45 | 0.92 |
| QEIATYRPLLE [KRT14_Y415_R417P] | 0.422 | 0.647 | 0.64 | 0.922 | 1.04 | 0.834 | 0.65 | 0.705 | 0.791 | 0.961 | 0.78 | 0.674 | 1.02 | 0.504 | 1.24 | 0.643 |
| QEIATYRRLRE [KRT17_Y384_L388R] | 0.441 | 0.75 | 0.478 | 0.597 | 0.558 | 0.933 | 0.557 | 0.537 | 0.64 | 0.61 | 0.77 | 0.779 | 0.734 | 0.798 | 0.936 | 0.508 |
| QELRRYLKSSV [MICA_Y194_G198S] | 0.426 | 0.732 | 0.502 | 0.349 | 0.457 | 0.483 | 0.349 | 0.298 | 0.322 | 0.36 | 0.44 | 0.653 | 0.543 | 0.213 | 0.6 | 0.292 |
| QEMMEYRHQIQ [DES_Y324] | 0.485 | 1.22 | 0.579 | 1.86 | 2.03 | 1.04 | 0.833 | 1.12 | 0.93 | 0.559 | 0.677 | 0.902 | 2.04 | 0.762 | 2.13 | 0.303 |
| QFFQSYFNNNF [ZNF236_Y644] | 0.755 | 1.57 | 1.02 | 0.455 | 1.6 | 0.841 | 0.29 | 0.549 | 0.981 | 0.682 | 0.643 | 0.532 | 0.766 | 0.627 | 1.14 | 0.37 |
| QFKDKYLAKHN [CASK_Y712_YF] | 0.914 | 0.83 | 1.3 | 0.35 | 0.788 | 0.298 | 0.268 | 0.34 | 0.53 | 0.266 | 0.383 | 0.384 | 0.519 | 0.403 | 0.467 | 0.433 |
| QFPDVYAREEV [CRX_Y67_YF] | 0.658 | 0.854 | 0.776 | 0.68 | 1.53 | 0.693 | 0.489 | 0.672 | 0.514 | 0.624 | 0.649 | 0.645 | 1.06 | 0.603 | 1.43 | 0.879 |
| QGCSIYKDYYR [PLA2G2D_Y82] | 0.738 | 1.02 | 0.813 | 0.731 | 1.08 | 1.57 | 0.734 | 4.85 | 1.68 | 3.56 | 1.27 | 2.92 | 1.29 | 0.67 | 1.47 | 0.724 |

| Sequence | SH2 binding enrichment [1] | SH2 binding enrichment [2] | SH2 binding enrichment [3] | phosphorylation enrichment [4] | phosphorylation enrichment [5] | phosphorylation enrichment [6] | phosphorylation enrichment [7] | phosphorylation enrichment [8] | phosphorylation enrichment [9] | phosphorylation enrichment [10] | phosphorylation enrichment [11] | phosphorylation enrichment [12] | phosphorylation enrichment [13] | phosphorylation enrichment [14] | phosphorylation enrichment [15] | phosphorylation enrichment [16] |
| --- | --- | --- | --- | --- | --- | --- | --- | --- | --- | --- | --- | --- | --- | --- | --- | --- |
| QGLRLYRPHLA [BTK_Y617] | 0.988 | 1.4 | 1.04 | 0.775 | 1.15 | 0.76 | 0.697 | 0.438 | 0.515 | 0.461 | 0.501 | 0.437 | 1.16 | 0.382 | 1.12 | 0.542 |
| QGRQTYLPQPA [DDR2_Y813] | 0.553 | 0.627 | 0.44 | 0.844 | 0.778 | 0.485 | 0.473 | 0.477 | 0.527 | 0.495 | 0.552 | 0.713 | 0.752 | 0.433 | 0.821 | 0.408 |
| QLCVSYPGGFT [PROS1_Y259_N258S_YF] | 0.535 | 0.711 | 0.687 | 1.24 | 1.45 | 0.892 | 0.546 | 0.658 | 0.481 | 0.663 | 0.496 | 0.682 | 1.12 | 0.578 | 1.47 | 0.775 |
| QMRLRYLAAEE [CEP120_Y884] | 0.445 | 0.664 | 0.982 | 0.916 | 1.3 | 0.874 | 0.643 | 0.647 | 0.741 | 0.845 | 0.931 | 0.776 | 1.11 | 0.423 | 1.41 | 0.563 |
| QMVGMYASFYM [AVPR2_Y124_S127F] | 0.538 | 0.784 | 0.842 | 3.61 | 1.79 | 1 | 1.92 | 6.92 | 2.49 | 7.85 | 0.45 | 5.46 | 1.35 | 4.41 | 1.65 | 3.65 |
| QPSPSYDSSRG [TCF12_Y70] | 0.393 | 0.773 | 0.733 | 0.521 | 0.455 | 0.557 | 0.626 | 0.482 | 0.534 | 0.623 | 0.561 | 0.553 | 0.68 | 0.414 | 0.661 | 0.457 |
| QQLQGYVPSNY [FRK_Y99_I100V] | 0.562 | 0.775 | 0.604 | 0.64 | 0.822 | 0.733 | 0.36 | 0.413 | 0.552 | 0.486 | 0.458 | 0.537 | 0.554 | 0.396 | 0.874 | 0.45 |
| QRALLYEDTLY [UNC13D_Y56_A59T] | 0.885 | 0.62 | 0.537 | 0.819 | 0.942 | 1.02 | 12.5 | 3.24 | 15.2 | 3.98 | 0.648 | 4.67 | 1.54 | 6 | 2.2 | 12.1 |
| QRRLVYYEGGA [RYR1_Y245] | 1.06 | 1.17 | 0.803 | 0.728 | 0.682 | 0.602 | 0.606 | 0.583 | 0.402 | 0.369 | 0.497 | 0.421 | 0.788 | 1.15 | 1.11 | 0.536 |
| QSVEPYTKQQL [STAT3_Y640] | 0.528 | 0.978 | 0.649 | 0.81 | 0.755 | 0.558 | 0.695 | 0.626 | 0.614 | 0.536 | 0.553 | 0.641 | 0.715 | 0.709 | 0.783 | 0.543 |
| QTENKYVSVSG [EIF2AK3_Y565_D566V] | 0.828 | 0.707 | 2.59 | 0.938 | 0.754 | 0.581 | 0.683 | 0.693 | 0.808 | 0.627 | 0.527 | 0.85 | 0.61 | 0.548 | 1.51 | 0.626 |
| QTLEAYIRWNK [SPAST_Y604] | 0.919 | 1.26 | 1.61 | 0.913 | 1.09 | 0.935 | 0.588 | 0.488 | 0.703 | 0.452 | 0.615 | 0.472 | 1.2 | 0.45 | 1.44 | 0.62 |
| RAMPVYEKAEH [TP63_Y231_K232E] | 2.1 | 1.07 | 0.574 | 0.576 | 1.03 | 0.545 | 0.834 | 0.776 | 0.654 | 0.867 | 0.493 | 1.02 | 0.664 | 0.453 | 0.598 | 1.79 |
| RASGIYYVPKG [APBB1IP_Y340] | 0.955 | 1.1 | 0.767 | 43.9 | 4.09 | 5.79 | 9.84 | 8.24 | 16.6 | 15.1 | 5.75 | 15.1 | 1.39 | 19.8 | 1.24 | 1.82 |
| RDMNAYIRPSP [MMAA_Y207] | 0.581 | 0.804 | 0.693 | 1.32 | 1.57 | 1.02 | 1.02 | 0.971 | 0.444 | 1.01 | 0.804 | 0.8 | 1.03 | 1.02 | 1.24 | 1.19 |
| REENGYNTYAS [FGF10_Y161_I156R] | 0.509 | 0.673 | 1.11 | 1.25 | 1.27 | 1.03 | 0.962 | 0.9 | 0.856 | 1.21 | 0.761 | 1.3 | 1.22 | 0.568 | 1.73 | 0.559 |
